Laboratory results published in paper PMC3895269 (RNA, 2014).

Target: Geobacillus kaustophilus ribosomal protein S18 (Geobacillus kaustophilus, UniProt Q5KU71 1-78)
Assay: native gel or EMSA

binding result: binds
B1: Geobacillus kaustophilus ribosomal protein S6 (natural protein)
chain: MRKYEIMYIIRPNMDDEARQALVERFNNVLKENGAEITNVTDWGKRRLAYEIQKYRDGYYMIVNVVSEPKAVQEFDRLARISEDIIRHIVVKEEE
